Reference: US11672873 (NANTBIO, dated 2023)

T1: B7-H4 expressed on the human breast cancer cell line SkBr3 and on the B7-H4 expressing cell line MX-1 (human (SkBr3 is called a human breast …, UniProt Q7Z7D3 25-282))
T1 construct: whole, on cells; also called VTCN1; B7x
T1 sequence (looked up): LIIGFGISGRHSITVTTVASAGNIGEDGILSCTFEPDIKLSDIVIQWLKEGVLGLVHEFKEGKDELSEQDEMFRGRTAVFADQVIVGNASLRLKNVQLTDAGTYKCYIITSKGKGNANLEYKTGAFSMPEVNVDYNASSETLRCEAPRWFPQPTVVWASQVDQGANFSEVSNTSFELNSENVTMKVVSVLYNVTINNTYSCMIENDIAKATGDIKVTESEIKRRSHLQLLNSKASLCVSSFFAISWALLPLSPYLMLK


Target: T1, B7-H4 expressed on the human breast …
Experiment: staining of SkBr3 cells, antibody at 10 ug/ml (FIG. 1)

Row | Binder | binding result
1 | anti-B7-H4 antibody 801 (antibody, V domains shown) VH: EVQLVESGGGLVQPGGSLRLSCAASGFTFNSYAMHWVRQAPGKGLEWVSAISGNGGSTRYADSVKGRFTISRDNSKNTLYLQMNSLRAEDTAVYYCARDRFRKVHGFDVWGQGTLVTVSS VL: DIQMTQSPSSLSASVGDRVTITCQASQDISNYLNWYQQKPGKAPKLLIYDASNLETGVPSRFSGSGSGTDFTFTISSLQPEDIATYYCQQDATFPLTFGQGTKVEIK | binds
2 | anti-B7-H4 antibody 817 (antibody, V domains shown) VH: EVQLVESGGGLVQPGGSLRLSCAASGFTFSSYAMHWVRQAPGKGLEWVSAISGSGGSTRYADSVKGRFTISRDNSKNTLYLQMNSLRAEDTAVYYCARGRWSKWGFDVWGQGTLVTVSS VL: not shown | binds
